This is an account of results in the RNAGym collection of RNA variant scans (doi:10.7554/elife.80360).

The chains are these.
B1: HDV Ribozyme (parent)
chain: GGCCGGCAUGGUCCCAGCCUCCUCGCUGGCGCCGGCUGGGCAACAUUCCGAGGGGACCGUCCCCUCGGUAAUGGCGAAUGGGACCCA

The variants in this series derive from B1. As to the kind of experiment: self-cleavage, relative activity (ratio to wild type); higher = more cleavage; co-transcriptional.
On to C26A G53C, for which the self-cleavage was 0.759. As to G25U C62A, the self-cleavage stood at 0.138. With U27A C58G, the self-cleavage turned out to be 0.831. Turning to C26U C33G, the self-cleavage stood at 0.389. As to C26U C33U, the self-cleavage was 0.872. G25U C36U: the self-cleavage came out at 0.218. Take G25C C48G: the self-cleavage came to 0.133.

Regarding G25C C48U, the self-cleavage was 0.26. On to G25C C30A, for which the self-cleavage came out at 0.0511. Regarding C26U G28A, the self-cleavage is 0.234. As for U27A C62U, the figure is 0.935; as for C26G C64G, 0.787; as for C26A A77G, 0.902.

On to U27A C63A, for which the self-cleavage came out at 0.95.

Turning to G25U U72A, the self-cleavage came out at 0.0707. As to U27A A45C, the self-cleavage is 0.256. For the variant U27A G34C, the self-cleavage came out at 0.0978. For G25U G31A, the self-cleavage amounted to 0.157. In the case of C26G G73U, the self-cleavage is 0.291. For the variant C26A A71G, the self-cleavage is 1.11. On to C24U G28A, for which the self-cleavage turned out to be 0.172. Regarding C24U G28C, the self-cleavage stood at 0.0475. For U27A G39U, the self-cleavage was 0.213. In the case of C26G G40C, the self-cleavage worked out at 0.19. For C26A C62G, the self-cleavage turned out to be 0.63. As for G25U C48U, the self-cleavage was determined as 0.102. Next, C26U C41G: 1.02; G25U G53A: 0.19. As for G25A U69A, the figure is 0.222.

Turning to G25A U69G, the self-cleavage came out at 0.233. As for C24U G53C, the figure is 0.848.

For the variant C26U G54C, the self-cleavage came to 1.03.

Take G25U A83C: the self-cleavage worked out at 0.0386. For the variant C24U A87C, the self-cleavage came to 0.739.

Turning to C26A G81A, the self-cleavage turned out to be 0.712.

As for G25C C86G, the self-cleavage was found to be 0.332. On to C24U C26U, for which the self-cleavage was 0.867. For C24U C26G, the self-cleavage was 0.615. For the variant G25C G38C, the self-cleavage is 0.119. For the variant G25C G38U, the self-cleavage was found to be 0.0791. Take U27A A42G: the self-cleavage amounted to 0.361. Next, G25C G29C: 0.0489; C26A G39U: 0.935; C26A G54C: 1.

On to C26A G54A, for which the self-cleavage stood at 0.79. Take C26U C44G: the self-cleavage is 0.831. For C26U C36U, the self-cleavage is 0.975.

As to C26G U69C, the self-cleavage amounted to 1.26. Turning to C26G U69A, the self-cleavage was 0.886. In the case of G25U G38A, the self-cleavage came to 0.0511. Consider C24U G82A, for which the self-cleavage came to 0.107. C24U G40U: the self-cleavage worked out at 0.337. For the variant C24U G40A, the self-cleavage was determined as 0.701. Turning to G25U U69G, the self-cleavage came out at 0.244. With C24U A77U, the self-cleavage amounted to 0.0791. With C26A A56U, the self-cleavage is 1.12. As for G25C A87C, the figure is 0.07; as for G25C A87U, 0.0773; as for C26A C75G, 0. As to C26U C84G, the self-cleavage is 0.962. As for G25C A70G, the self-cleavage is 0.0573.

As for G25A G38U, the self-cleavage is 0.0744. For the variant G25A G38C, the self-cleavage amounted to 0.0791. As to C26A G73A, the self-cleavage came to 0.89. Regarding C26A G73C, the self-cleavage is 0.522. G25A G59U: the self-cleavage amounted to 0.264. Regarding G25A G59A, the self-cleavage stood at 0.189. Next, G25C C84U: 0.0314; G25C C84G: 0.158; G25A C36G: 0.0997. Turning to G25A C36A, the self-cleavage worked out at 0.0554. Turning to G25A C44G, the self-cleavage was 0.0923. For C26G G35C, the self-cleavage came out at 0.131. Take G25A A71G: the self-cleavage was 0.0594. Take C24U C58U: the self-cleavage worked out at 0.772. Regarding C24U C58G, the self-cleavage stood at 0.811. Turning to C24U C58A, the self-cleavage is 0.789. Regarding G25A C63A, the self-cleavage stood at 0.125. Turning to C26U A51C, the self-cleavage came out at 0.872.

Consider C26U A51U, for which the self-cleavage is 0.901. As for C24U G50A, the figure is 0.726; as for C24U G50C, 0.554; as for C26G C33G, 0.285. G25C U46A: the self-cleavage came out at 0. As for G25U G50A, the self-cleavage is 0.151.

G25U G50C: the self-cleavage turned out to be 0.136. For the variant C26U U72G, the self-cleavage stood at 0.721.

As for C26U U27G, the self-cleavage is 0.923. As for C26U U27C, the self-cleavage amounted to 1.29. As for G25U A51U, the self-cleavage is 0.237. For C26U A45C, the self-cleavage turned out to be 0.776. As for C26A C49G, the figure is 0.867; as for G25C A51U, 0.148; as for U27A A51G, 0.997. Next, C26U G59A: 1.08; G25C C41G: 0. For U27A, the self-cleavage was 0.916.

Regarding C24U U72A, the self-cleavage was determined as 0.404. As to U27A C85A, the self-cleavage stood at 0.957.

Take U27A C85U: the self-cleavage came out at 0.684.

Consider C26U G31U, for which the self-cleavage came to 0.762. As for C26U G31A, the figure is 0.819. For the variant G25U G82U, the self-cleavage is 0.0252. As for G25A C84G, the self-cleavage amounted to 0.17.

As to C26A G28C, the self-cleavage amounted to 0.0791. C26A G28U: the self-cleavage is 0.222. Next, U27A A71U: 0.906; C26G G74U: 0.359. G25U U27A: the self-cleavage is 0.135. As to C24U C36U, the self-cleavage was found to be 0.402. Take C24U C36G: the self-cleavage amounted to 0.141.

As for C24U C44U, the self-cleavage was determined as 0.434.

For C26U G80A, the self-cleavage stood at 0.897. In the case of G25C G50A, the self-cleavage is 0.0354. For G25C G50U, the self-cleavage worked out at 0.0811.

In the case of G25C A78U, the self-cleavage was found to be 0.131. For the variant C26U G35A, the self-cleavage came to 0.876. Take G25A C33A: the self-cleavage was determined as 0.0863.

Turning to G25A C33G, the self-cleavage was 0.0228. Turning to C26G A83C, the self-cleavage is 0.785.

For C24U G81U, the self-cleavage stood at 0.169.

Take C26A G40A: the self-cleavage stood at 1.01. With C24U C48G, the self-cleavage worked out at 0.627. On to G25A A70U, for which the self-cleavage came out at 0.17. For G25A A70C, the self-cleavage amounted to 0.138. Next, C26U U46C: 0.897. Consider G25C C66U, for which the self-cleavage came to 0.0563. Regarding U27A C41G, the self-cleavage is 0.858. Consider C26G G52U, for which the self-cleavage is 0.671. As for C26G G52C, the figure is 0.889. Regarding C26A U60A, the self-cleavage amounted to 1.02. In the case of C24U G59C, the self-cleavage turned out to be 0.845. As for C26A C63G, the figure is 0.853; as for G25A A42C, 0.0462; as for C26A C41G, 0.883. For the variant C26A C41U, the self-cleavage was 1.17. Consider C24U G67C, for which the self-cleavage was found to be 0.78. Turning to G25C G73A, the self-cleavage was 0.116. Regarding G25A G82C, the self-cleavage worked out at 0.089.

On to G25U A77U, for which the self-cleavage is 0.0923. As to G25U C41G, the self-cleavage came out at 0.119. Take C26G C75A: the self-cleavage stood at 0.266. As for C26A U65G, the self-cleavage came to 0.646.

For the variant C26A A43C, the self-cleavage is 0.665. With C26A A43G, the self-cleavage stood at 0.731. As for C26G U46A, the self-cleavage amounted to 0.731. In the case of C26A C36G, the self-cleavage worked out at 0.196. For the variant C26A U46C, the self-cleavage was determined as 0.745. As for C26G C48A, the figure is 0.973; as for G25U G29U, 0.12; as for C26G C36U, 0.529.

For the variant C26G C36A, the self-cleavage was found to be 0.151.

G25A A77U: the self-cleavage turned out to be 0.

Turning to G25A A77G, the self-cleavage stood at 0.

For the variant C26U G38C, the self-cleavage stood at 0.155. Regarding C26U G38A, the self-cleavage stood at 0.0573. As for G25C C33U, the figure is 0.0773; as for G25C C33A, 0; as for G25A U79C, 0.0583.

Regarding G25A U79A, the self-cleavage was 0.0437. As to U27A C44U, the self-cleavage turned out to be 0.482. For G25U C26U, the self-cleavage is 0.0415.

Take G25U C26G: the self-cleavage was 0.816.

Turning to C26U C66A, the self-cleavage came out at 1.09. With C26U G29U, the self-cleavage came out at 0.136. On to C24U C75A, for which the self-cleavage was 0.0639. Next, C26A C66A: 0.909.
